Here are results for 5 molecules from paper PMC4569481, “Pseudomonas aeruginosa Uses Dihydrolipoamide Dehydrogenase (Lpd) to Bind to the Human Terminal Pathway Regulators Vitronectin and Clusterin to Inhibit Terminal Pathway Complement Attack” (PLoS ONE, 2015).

B1: clusterin, purified from human plasma (natural protein)
chain 1: DQTVSDNELQEMSNQGSKYVNKEIQNAVNGVKQIKTLIEKTNEERKTLLSNLEEAKKKKEDALNETRESETKLKELPGVCNETMMALWEECKPCLKQTCMKFYARVCRSGSGLVGRQLEEFLNQSSPFYFWMNGDRIDSLLENDRQQTHMLDVMQDHFSRASSIIDELFQDRFFTREPQDTYHYLPFSLPHRRPHFFFPKSRIVR
chain 2: SLMPFSPYEPLNFHAMFQPFLEMIHEAQQAMDIHFHSPAFQHPPTEFIREGDDDRTVCREIRHNSTGCLRMKDQCDKCREILSVDCSTNNPSQAKLRRELDESLQVAERLTRKYNELLKSYQWKMLNTSSLLEQLNEQFNWVSRLANLTQGEDQYYLRVTTVASHTSDSDVPSGVTEVVVKLFDSDPITVTVPVEVSRKNPKFMETVAEKALQEYRKKHREE
notes: Disulfide-linked heterodimer of one alpha and one beta chain of 40 kDa each; In the MST experiment labelled with NT-647 RED-NHS; source: bought: BioVision, purified from human plasma; copies: 1 + 1
B2: Dihydrolipoamide dehydrogenase (Lpd) of P. aeruginosa, recombinant full length (Lpd^1-478) (natural protein)
chain: MSQKFDVVVIGAGPGGYVAAIRAAQLGLKTACIEKYIGKEGKVALGGTCLNVGCIPSKALLDSSYKYHEAKEAFKVHGIEAKGVTIDVPAMVARKANIVKNLTGGIATLFKANGVTSFEGHGKLLANKQVEVTGLDGKTQVLEAENVIIASGSRPVEIPPAPLTDDIIVDSTGALEFQAVPKKLGVIGAGVIGLELGSVWARLGAEVTVLEALDKFLPAADEQIAKEALKVLTKQGLNIRLGARVTASEVKKKQVTVTFTDANGEQKETFDKLIVAVGRRPVTTDLLAADSGVTLDERGFIYVDDHCKTSVPGVFAIGDVVRGAMLAHKASEEGVMVAERIAGHKAQMNYDLIPSVIYTHPEIAWVGKTEQTLKAEGVEVNVGTFPFAASGRAMAANDTTGLVKVIADAKTDRVLGVHVIGPSAAELVQQGAIGMEFGTSAEDLGMMVFSHPTLSEALHEAALAVNGHAIHIANRKKR
notes: On the gel two bands, 57 and 50 kDa
B5: vitronectin, monomeric, purified from human plasma (natural protein)
chain: DQESCKGRCTEGFNVDKKCQCDELCSYYQSCCTDYTAECKPQVTRGDVFTMPEDEYTVYDDGEEKNNATVHEQVGGPSLTSDLQAQSKGNPEQTPVLKPEEEAPAPEVGASKPEGIDSRPETLHPGRPQPPAEEELCSGKPFDAFTDLKNGSLFAFRGQYCYELDEKAVRPGYPKLIRDVWGIEGPIDAAFTRINCQGKTYLFKGSQYWRFEDGVLDPDYPRNISDGFDGIPDNVDAALALPAHSYSGRERVYFFKGKQYWEYQFQHQPSQEECEGSSLSAVFEHFAMMQRDSWEDIFELLFWGRTSAGTRQPQFISRDWHGVPGQVDAAMAGRIYISGMAPRPSLAKKQRFRHRNRKGYRSQRGHSRGRNQNSRRPSRATWLSLFSSEESNLGANNYDDYRMDWLVPATCEPIQSVFFFSGDKYYRVNLRTRRVDTVDPPYPRSIAQYWLGCPAPGHL
notes: vitronectin, human, purified from plasma; In the MST experiment labelled with NT-647 RED-NHS; Plasma vitronectin circulates as variants of 75 and 65 kDa; also called Vn; full-length vitronectin; source: bought: Corning, purified from human plasma

Holding throughout (conditions): both partners purified
Experiment [1] has as its target B2. The experiment can be described thus: MST; fluid phase; NT-647-labeled vitronectin (50 nM) or clusterin (25 nM) mixed with Lpd in 1:2 dilutions (0.001 to 50 μM); 50 mM Tris-HCl pH 7.6, 150 mM NaCl, 10 mM MgCl2, 0.05% Tween-20; RT; 50% LED power, 80% MST power.
The target of another experiment is T1, Factor H (human, UniProt P08603 19-1231).
T1 construct: complement Factor H, human; source: bought: Complement Technology
T1 sequence (P08603 19-1231): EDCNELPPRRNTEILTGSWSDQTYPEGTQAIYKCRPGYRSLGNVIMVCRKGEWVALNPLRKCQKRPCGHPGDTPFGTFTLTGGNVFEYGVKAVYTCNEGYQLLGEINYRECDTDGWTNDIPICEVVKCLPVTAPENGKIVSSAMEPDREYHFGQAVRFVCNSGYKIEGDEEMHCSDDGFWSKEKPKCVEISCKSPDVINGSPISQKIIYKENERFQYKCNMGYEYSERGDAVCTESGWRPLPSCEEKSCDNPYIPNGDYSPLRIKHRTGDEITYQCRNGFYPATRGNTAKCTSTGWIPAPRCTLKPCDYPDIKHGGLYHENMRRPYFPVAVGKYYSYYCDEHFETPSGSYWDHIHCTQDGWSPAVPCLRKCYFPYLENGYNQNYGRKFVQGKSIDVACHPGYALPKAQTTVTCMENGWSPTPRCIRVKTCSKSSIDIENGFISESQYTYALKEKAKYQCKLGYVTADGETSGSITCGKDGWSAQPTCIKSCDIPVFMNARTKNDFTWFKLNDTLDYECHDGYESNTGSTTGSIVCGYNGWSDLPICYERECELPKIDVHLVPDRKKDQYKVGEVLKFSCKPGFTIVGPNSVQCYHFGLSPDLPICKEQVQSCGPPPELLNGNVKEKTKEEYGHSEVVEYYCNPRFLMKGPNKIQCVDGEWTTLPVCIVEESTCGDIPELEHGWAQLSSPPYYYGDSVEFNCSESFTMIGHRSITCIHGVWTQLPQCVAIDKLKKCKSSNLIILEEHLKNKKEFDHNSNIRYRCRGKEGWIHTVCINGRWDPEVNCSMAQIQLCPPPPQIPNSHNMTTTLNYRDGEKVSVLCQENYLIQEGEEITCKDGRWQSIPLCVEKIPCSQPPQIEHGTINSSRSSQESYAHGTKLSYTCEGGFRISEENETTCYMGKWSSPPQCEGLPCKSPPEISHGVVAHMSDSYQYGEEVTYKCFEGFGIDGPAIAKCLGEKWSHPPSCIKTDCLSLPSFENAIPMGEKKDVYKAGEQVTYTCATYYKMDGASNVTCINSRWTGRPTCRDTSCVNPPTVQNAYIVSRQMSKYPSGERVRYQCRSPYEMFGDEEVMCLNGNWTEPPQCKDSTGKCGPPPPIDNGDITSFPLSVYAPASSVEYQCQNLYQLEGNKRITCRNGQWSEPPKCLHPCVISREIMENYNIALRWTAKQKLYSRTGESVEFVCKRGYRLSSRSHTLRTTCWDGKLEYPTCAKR
The experiment can be described thus: ELISA; two human ligands added together to immobilized Lpd, one at a constant concentration (vitronectin 5 μg/ml, clusterin 2.5 μg/ml, Factor H 5 μg/ml or plasminogen 5 μg/ml), the other at increasing concentrations; each detected with its own antibody.

Experiment [2] addresses B5. The experiment can be described thus: ELISA; equimolar amounts (13.3 nM) of full length Lpd and Lpd deletion mutants immobilized on microtiter plates; vitronectin or clusterin added; bound ligand quantified with antibodies.
In experiment [3] the target is B1. The description is as above.
Experiment [4] concerns the target B2. The experiment in a line: ELISA; two human ligands added together to immobilized Lpd, one at a constant concentration (vitronectin 5 μg/ml, clusterin 2.5 μg/ml, Factor H 5 μg/ml or plasminogen 5 μg/ml), the other at increasing concentrations; each detected with its own antibody.
The target of experiment [5] is Lpd deletion mutant Lpd^264-478 (P. aeruginosa strain PAO1, UniProt Q9I3D1 264-478). The experiment can be described thus: ELISA; equimolar amounts (13.3 nM) of full length Lpd and Lpd deletion mutants immobilized on microtiter plates; vitronectin or clusterin added; bound ligand quantified with antibodies.
In experiment [6] the target is T2, Lpd deletion mutant Lpd^1-160 (P. aeruginosa strain PAO1, UniProt Q9I3D1 1-160).
T2 construct: Dihydrolipoamide dehydrogenase (Lpd), P. aeruginosa strain PAO1, residues 1-160; also called Lpd^1-160: 20 kDa; N-terminal Lpd^1-160
The description is as above.

Experiment [7] has as its target Lpd deletion mutant Lpd^141-478 (P. aeruginosa strain PAO1, UniProt Q9I3D1 141-478). The experiment is described as above.

In the case of B1, the Kd in experiment [1] is 654 ± 54 nM.
On to B2, for which the binding result with Factor H was “binds”.

B3: Lpd deletion mutant Lpd^1-287 (domain or fragment, P. aeruginosa strain PAO1, UniProt Q9I3D1 1-287, looked up)
chain: MSQKFDVVVIGAGPGGYVAAIRAAQLGLKTACIEKYIGKEGKVALGGTCLNVGCIPSKALLDSSYKYHEAKEAFKVHGIEAKGVTIDVPAMVARKANIVKNLTGGIATLFKANGVTSFEGHGKLLANKQVEVTGLDGKTQVLEAENVIIASGSRPVEIPPAPLTDDIIVDSTGALEFQAVPKKLGVIGAGVIGLELGSVWARLGAEVTVLEALDKFLPAADEQIAKEALKVLTKQGLNIRLGARVTASEVKKKQVTVTFTDANGEQKETFDKLIVAVGRRPVTTDLL
notes: Dihydrolipoamide dehydrogenase (Lpd), P. aeruginosa strain PAO1, residues 1-287; also called Lpd^1-287: 37 kDa
Consider B3, for which the binding result in experiment [2] is given as “binds”.

B4: Lpd deletion mutant Lpd^1-382 (domain or fragment, P. aeruginosa strain PAO1, UniProt Q9I3D1 1-382, looked up)
chain: MSQKFDVVVIGAGPGGYVAAIRAAQLGLKTACIEKYIGKEGKVALGGTCLNVGCIPSKALLDSSYKYHEAKEAFKVHGIEAKGVTIDVPAMVARKANIVKNLTGGIATLFKANGVTSFEGHGKLLANKQVEVTGLDGKTQVLEAENVIIASGSRPVEIPPAPLTDDIIVDSTGALEFQAVPKKLGVIGAGVIGLELGSVWARLGAEVTVLEALDKFLPAADEQIAKEALKVLTKQGLNIRLGARVTASEVKKKQVTVTFTDANGEQKETFDKLIVAVGRRPVTTDLLAADSGVTLDERGFIYVDDHCKTSVPGVFAIGDVVRGAMLAHKASEEGVMVAERIAGHKAQMNYDLIPSVIYTHPEIAWVGKTEQTLKAEGVEVNV
notes: Dihydrolipoamide dehydrogenase (Lpd), P. aeruginosa strain PAO1, residues 1-382; also called Lpd^1-382: 53 kDa
For B4, the binding result in experiment [3] and in experiment [2] was “binds” throughout.
B5: the Kd in experiment [1] came out at 600 ± 50 nM. Moreover, in experiment [4], the “percent reduction of Factor H binding to Lpd by vitronectin at four-fold molar excess” value stood at 37%. Further, the “percent reduction of binding (ELISA signal)” value in experiment [5] stood at 47%; in experiment [6], 51%; in experiment [7], 47%.
